The results in this text go back to patent publication US20230250148A1 (published 2023).

Read-outs that look alike come from different tables or passages of the source.

For assay [1], the target named is T1, human insulin receptor (IR) on human IM-9 cells (human, UniProt P06213 28-1382).
T1 construct: whole, on cells; also called human IR
Briefly: competition with biotinylated RHI on IM-9 cells, flow cytometry, 4 C. The method, then: (§1) 40 µL of an IM-9 cell suspension (8×10⁶ cells/mL) was then added to each well by multichannel pipette, mixed again gently and incubated on ice for 30 min to allow competitive binding on the IR on IM-9 cells. Cells were then washed twice with 275µL of ice-cold FACS wash buffer (HBSS/2mM EDTA/0.1% Na-azide + 0.5% horse serum) by centrifuging the V-bottom plate at 3000 rpm for 3 min and aspirating the supernatant. Cells were then resuspended in 40µL of FACS staining medium containing 1:100 diluted Streptavidin-PE (Life Technologies) for 20 min on ice. Cells were then washed once with 275 µL of ice-cold FACS buffer and finally fixed with 3% paraformaldehyde for 10 min at room temp. Cells were then washed once with 275 µL of ice-cold FACS buffer and resuspended in 250µl of FACS buffer for analysis.
In vitro insulin receptor binding for the insulin-Fc fusion proteins of SEQ ID NO: 36 and SEQ ID NO: 38 was tested according to the procedure of Example 12.

For assay [2], the target named is T2, biotinylated recombinant human Fc(gamma)RI (human, UniProt P12314 16-288, biotinylated, site not stated).
T2 construct: Bought reagent; construct not described; also called rhFc(gamma)RI; Fc(gamma) receptor I
The assay can be described thus: ELISA, fusion protein coated, biotinylated rhFc(gamma)RI at 3000 ng/mL. On the procedure: (§2) The binding of insulin-Fc fusion proteins to the Fc(gamma)RI at pH 7.4 is conducted using an ELISA assay as follows using human Fc(gamma)RI (i.e., rhFc(gamma)RI). Insulin-Fc fusion proteins are diluted to 10 µg/mL in sodium bicarbonate buffer at pH 9.6 and coated on Maxisorp (Nunc) microtiter plates overnight at 4° C., after which the microplate strips are washed 5 times with PBST (PBS/0.05% Tween-20) buffer and blocked with Superblock blocking reagent (ThermoFisher). Serial dilutions of biotinylated rhFc(gamma)RI (recombinant human Fc(gamma)RI; R&D Systems) are prepared in PBST/10% Superblock buffer from 3000 ng/mL to 4.1 ng/mL and loaded at 100 µL/well onto the microplate strips coated with insulin-Fc fusion protein. The microtiter plate is incubated for 1 hour at room temperature after which time the microplate strips are washed 5 times with PBST and then loaded with 100 µL/well of streptavidin-HRP diluted 1:10000 in PBST/10% Superblock buffer. After incubating for 45 min, the microplate strips are washed again 5 times with PBST. TMB is added to reveal the bound Fc(gamma)RI proteins and is stopped with ELISA stop reagent (Boston Bioproducts). The plate is read in an ELISA plate reader at 450 nm, and the OD450 values (proportional to the binding of rhFc(gamma)RI to insulin-Fc protein) are plotted against log concentrations of rhFc(gamma)RI added to each well to generate binding curves using GraphPad Prism software. For groupings of compounds with somewhat similar curves, the OD450 at one of the higher concentrations, for instance at rhFc(gamma)RI concentrations of 3000 ng/mL, can be used to identify differences between coated insulin-Fc fusion protein compounds. […]
Finally, select compounds were tested for their likelihood to interact with the immune system by measuring their Fc(gamma) receptor binding activity according to the procedure of Example 15.
(An ELISA detects its analyte on a solid surface through an enzyme-linked reagent.)

Assay [3] concerns the target T2, biotinylated recombinant human …. Briefly: ELISA, fusion protein coated, biotinylated rhFc(gamma)RI in solution. The method, then: as §2
For assay [4] the target is unchanged. Described as above. The source holds these as a separate data set.
For assay [5], the target named is T1, human insulin receptor (IR) on human …. Briefly: competition with biotinylated RHI on IM-9 cells, flow cytometry, 4 C. The method, then:
as §1
The two insulin-Fc fusion proteins were manufactured in HEK293 cells according to Example 1 and purified using a Protein A column according to Example 4. Their structures were confirmed according to Example 6 by non-reducing and reducing CE-SDS, and the sequences were further identified by LC-MS with glycan removal according to Example 8. Their %homodimer content was measured by size-exclusion chromatography according to Example 10, and their insulin receptor binding affinities were measured according to Example 12.
This is another data set of the same source. For orientation: In flow cytometry, cells or beads pass a laser one at a time.

T2 sequence (P12314 16-288 limits assumed): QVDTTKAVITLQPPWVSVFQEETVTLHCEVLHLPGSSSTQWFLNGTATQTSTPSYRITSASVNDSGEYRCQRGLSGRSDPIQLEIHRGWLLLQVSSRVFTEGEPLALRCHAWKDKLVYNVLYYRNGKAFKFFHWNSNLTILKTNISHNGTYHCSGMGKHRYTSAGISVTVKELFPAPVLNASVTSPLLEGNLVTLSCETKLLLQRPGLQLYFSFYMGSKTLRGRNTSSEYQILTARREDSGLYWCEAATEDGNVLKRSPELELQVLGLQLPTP
T1 sequence (P06213 28-1382): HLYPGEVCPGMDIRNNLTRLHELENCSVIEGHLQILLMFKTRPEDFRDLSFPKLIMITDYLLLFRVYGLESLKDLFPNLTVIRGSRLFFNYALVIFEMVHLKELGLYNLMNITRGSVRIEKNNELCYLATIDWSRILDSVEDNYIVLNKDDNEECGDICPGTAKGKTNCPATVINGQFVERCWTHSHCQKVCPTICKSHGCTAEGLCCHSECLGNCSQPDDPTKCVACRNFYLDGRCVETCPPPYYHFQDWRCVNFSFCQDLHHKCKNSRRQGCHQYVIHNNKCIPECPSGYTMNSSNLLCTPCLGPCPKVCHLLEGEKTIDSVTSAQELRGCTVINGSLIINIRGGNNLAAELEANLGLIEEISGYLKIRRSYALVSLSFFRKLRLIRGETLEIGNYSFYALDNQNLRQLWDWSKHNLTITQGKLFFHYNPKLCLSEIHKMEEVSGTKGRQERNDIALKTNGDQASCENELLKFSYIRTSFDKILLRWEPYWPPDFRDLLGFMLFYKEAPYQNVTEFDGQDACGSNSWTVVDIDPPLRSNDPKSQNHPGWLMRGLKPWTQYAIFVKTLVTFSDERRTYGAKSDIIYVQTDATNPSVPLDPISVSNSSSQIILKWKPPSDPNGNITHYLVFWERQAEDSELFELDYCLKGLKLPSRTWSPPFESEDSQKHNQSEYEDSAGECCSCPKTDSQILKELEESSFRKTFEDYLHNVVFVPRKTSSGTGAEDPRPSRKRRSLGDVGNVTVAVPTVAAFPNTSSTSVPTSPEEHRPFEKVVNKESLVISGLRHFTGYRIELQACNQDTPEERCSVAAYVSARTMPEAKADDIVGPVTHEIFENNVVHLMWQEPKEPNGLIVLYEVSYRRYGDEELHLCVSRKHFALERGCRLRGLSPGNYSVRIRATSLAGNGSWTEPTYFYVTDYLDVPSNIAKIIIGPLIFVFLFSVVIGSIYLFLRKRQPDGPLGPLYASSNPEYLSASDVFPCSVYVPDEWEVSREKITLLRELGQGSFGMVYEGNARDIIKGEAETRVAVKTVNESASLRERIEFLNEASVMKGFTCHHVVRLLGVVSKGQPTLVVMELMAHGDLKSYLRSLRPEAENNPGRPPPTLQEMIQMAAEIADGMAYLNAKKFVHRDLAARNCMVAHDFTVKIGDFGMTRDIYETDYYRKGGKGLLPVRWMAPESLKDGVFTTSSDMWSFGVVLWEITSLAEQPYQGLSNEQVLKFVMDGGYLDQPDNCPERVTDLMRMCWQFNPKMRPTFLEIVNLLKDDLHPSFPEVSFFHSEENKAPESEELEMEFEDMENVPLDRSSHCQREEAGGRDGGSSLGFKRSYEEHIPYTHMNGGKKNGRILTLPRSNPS

B1: insulin-Fc fusion protein of SEQ ID NO: 36 (Fc fusion)
chain: FVNQHLCGSDLVEALALVCGERGFFYTDPTGGGPRRGIVEQCCHSICSLYQLENYCNGGGGAGGGGDCPKCPAPEMLGGPSVFIFPPKPKDTLLIARTPEVTCVVVDLDPEDPEVQISWFVDGKQMQTAKTQPREEQFNGTYRVVSVLPIGHQDWLKGKQFTCKVNNKALPSPIERTISKARGQAHQPSVYVLPPSREELSKNTVSLTCLIKDFFPPDIDVEWQSNGQQEPESKYRTTPPQLDEDGSYFLYSKLSVDKSRWQRGDTFICAVMHEALHNHYTQESLSHSPG
modifications: native N-glycosylation site cNg-NB139
notes: HEK293 homodimer
Turning to B1, the IC50 – broadly, the midpoint of a concentration-inhibition curve – in assay [1] is 0.028 µM. Further, in assay [2], the OD450nm was 0.428, the “OD450nm minus assay background” value came to 0.371 and the “ratio to SEQ ID NO: 36” value turned out to be 1. In assay [3], the OD450nm is 0.386, the “OD450nm minus assay background” value is 0.323 and the “ratio to SEQ ID NO: 36” value came to 1.

B2: insulin-Fc fusion protein of SEQ ID NO: 40 (Fc fusion)
chain: FVNQHLCGSDLVEALALVCGERGFFYTDPTGGGPRRGIVEQCCHSICSLYQLENYCNGGGGAGGGGDCPKCPAPEMLGGPSVFIFPPKPKDTLLIARTPEVTCVVVDLDPEDPEVQISWFVDGKQMQTAKTQPREEQFSGTYRVVSVLPIGHQDWLKGKQFTCKVNNKALPSPIERTISKARGQAHQPSVYVLPPSREELSKNTVSLTCLIKDFFPPDIDVEWQSNGQQEPESKYRTTPPQLDEDGSYFLYSKLSVDKSRWQRGDTFICAVMHEALHNHYTQESLSHSPG
notes: non-glycosylated
Take B2: in assay [3], the OD450nm worked out at 0.14, the “OD450nm minus assay background” value was determined as 0.077 and the “ratio to SEQ ID NO: 36” value came to 0.24. The “fold lower Fc(gamma)RI binding against SEQ ID NO: 36” value in assay [4] is 4 fold.

B3: insulin-Fc fusion protein of SEQ ID NO: 41 (Fc fusion)
chain: FVNQHLCGSDLVEALALVCGERGFFYTDPTGGGPRRGIVEQCCHSICSLYQLENYCNGGGGAGGGGDCPKCPAPEMLGGPSVFIFPPKPKDTLLIARTPEVTCVVVDLDPEDPEVQISWFVDGKQMQTAKTQPREEQFDGTYRVVSVLPIGHQDWLKGKQFTCKVNNKALPSPIERTISKARGQAHQPSVYVLPPSREELSKNTVSLTCLIKDFFPPDIDVEWQSNGQQEPESKYRTTPPQLDEDGSYFLYSKLSVDKSRWQRGDTFICAVMHEALHNHYTQESLSHSPG
notes: non-glycosylated
For B3, in assay [3], the OD450nm came out at 0.204, the “OD450nm minus assay background” value came out at 0.141 and the “ratio to SEQ ID NO: 36” value worked out at 0.44. Also, the “fold Fc(gamma) receptor binding activity against SEQ ID NO: 40 and SEQ ID NO: 42” value in assay [4] was around 2 fold.

B4: insulin-Fc fusion protein of SEQ ID NO: 48 (Fc fusion)
chain: FVNQHLCGSHLVEALALVCGERGFFYTDPTGGGPRRGIVEQCCTSICSLYQLENYCGGGGAGGGGDCPKCPAPEMLGGPSVFIFPPKPKDTLLIARTPEVTCVVVDLDPEDPEVQISWFVDGKQMQTAKTQPREEQFSGTYRVVSVLPIGHQDWLKGKQFTCKVNNKALPSPIERTISKARGQAHQPSVYVLPPSREELSKNTVSLTCLIKDFFPPDIDVEWQSNGQQEPESKYRTTPPQLDEDGSYFLYSKLSVDKSRWQRGDTFICAVMHEALHNHYTQESLSHSPG
For the molecule B4, the IC50 in assay [5] was above 5 µM.

B5: insulin-Fc fusion protein of SEQ ID NO: 53 (Fc fusion)
chain: FVNQHLCGSHLVEALALVCGERGFFYTDPTGGGPRRGIVEQCCTSICSLYQLENYCGGGGGQGGGGQGGGGQGGGGGDCPKCPAPEMLGGPSVFIFPPKPKDTLLIARTPEVTCVVVDLDPEDPEVQISWFVDGKQMQTAKTQPREEQFSGTYRVVSVLPIGHQDWLKGKQFTCKVNNKALPSPIERTISKARGQAHQPSVYVLPPSREELSKNTVSLTCLIKDFFPPDIDVEWQSNGQQEPESKYRTTPPQLDEDGSYFLYSKLSVDKSRWQRGDTFICAVMHEALHNHYTQESLSHSPG
In the case of B5, the IC50 in assay [5] stood at 1.28 µM.

B6: insulin-Fc fusion protein of SEQ ID NO: 31 (Fc fusion)
chain: FVNQHLCGSDLVEALALVCGERGFFYTDPTGGGPRRGIVEQCCHSICSLYQLENYCNGGGGAGGGGRCTDTPPCPVPEPLGGPSVLIFPPKPKDILRITRTPEVTCVVLDLGREDPEVQISWFVDGKEVHTAKTQSREQQFNGTYRVVSVLPIEHQDWLTGKEFKCRVNHIDLPSPIERTISKARGRAHKPSVYVLPPSPKELSSSDTVSITCLIKDFYPPDIDVEWQSNGQQEPERKHRMTPPQLDEDGSYFLYSKLSVDKSRWQQGDPFTCAVMHETLQNHYTDLSLSHSPG
notes: HEK293; only 24% homodimer
Regarding B6, in assay [1], the half-maximal inhibitory concentration (IC50) was 2.73 µM.
